For 120 sequences, switch fluorescence ratio results are on record in the supplement of paper PMC10126150.

The data set deals with ATP. The data set can be described thus: switch fluorescence ratio, 500 uM ATP over buffer (Cy3 cluster intensity, sum of 5 cycles each) (fold (ratio)); higher = stronger signal-on switching upon ATP binding; sequences stand for … in TCGTCGGCAGCGTCAGATGTGTATAAGAGACAGTTTTTTTTTTTTTTTTTTTTTTTTT…TC. The settings on record: aptamer strand: ATP DNA aptamer (quencher-CACCTGGGGGAGTATTGCGGAGGAAGG + anchor), 100 nM annealed; ATP concentration: 500 uM. The gist of the method:
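Cy3-labelled switching-strand clusters on a modified Illumina MiSeq flow-cell were annealed to 100 nM quencher-labelled ATP aptamer and imaged first in selection buffer, then after 15 min with 500 uM ATP at 22 °C. NaOH stripping and re-annealing separated each of five buffer/ATP cycles, and clusters outside 100-1000 RFU were excluded. The fluorescence ratio sums target-cycle Cy3 intensity over buffer-cycle Cy3 intensity per cluster and averages it per switch-domain sequence.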

± gives the standard deviation of the averaged measurements.
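Note: ATP exposure 15 min at 22 °C before imaging.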

Turning to TCAAAAGGGG, the switch fluorescence ratio turned out to be 1.06 ± 0.092. Under AGCTGGGCCT stands 1.04 ± 0.011; under TGAAGAATGT, 1.02 ± 0.017; under CAGCGCGGGA, 0.999 ± 0.014.

For the sequence TTAAGTGGTG, the switch fluorescence ratio was found to be 1.01 ± 0.017. Take TAATACTATT: the switch fluorescence ratio came out at 1.05 ± 0.016. For GGTAAAGGTT, the switch fluorescence ratio stood at 0.999 ± 0.034.

For the sequence CAGTCGTCGA, the switch fluorescence ratio was found to be 1.001 ± 0.0033. The figure for ATATATTTAG is 0.996 ± 0.012.

Take ATTCGTTTGT: the switch fluorescence ratio is 0.9869 ± 0.0038. Under GGGGAAGCCG stands 1.01 ± 0.027. Under TTTGAATTTG stands 0.974 ± 0.023; under CTATACGGCA, 1.09 ± 0.011.

For the sequence TGCTGGCTGG, the switch fluorescence ratio was 0.973 ± 0.0016. Under TAGTTCGCTT stands 1.003 ± 0.0067. Under CCCAAAAACG stands 1.25 ± 0.29; under TAAAGGTAAT, 1.01 ± 0.024; under TTTTTGGAAT, 1 ± 0.028. As to TCTATACTTT, the switch fluorescence ratio was 1 ± 0.021. The figure for GCGGGGGTAG is 1.17 ± 0.25; for TTGGAGTACT it is 1.09 ± 0.24. TCGGATGAGG: the switch fluorescence ratio turned out to be 1 ± 0.042. Turning to CGTAATATTA, the switch fluorescence ratio turned out to be 1.07 ± 0.01. For the sequence TTGTGTAGTC, the switch fluorescence ratio worked out at 1.005 ± 0.0091. Under CCATATAGAG stands 1.02 ± 0.027; under CAAAGAGGCG, 1.02 ± 0.057; under TTTTAGGGTG, 1.07 ± 0.072. Take TTCGGCTCTC: the switch fluorescence ratio turned out to be 1.63 ± 0.86. Under CGCTCTTATT stands 0.978 ± 0.016.

GTCACACTAT: the switch fluorescence ratio was 1.02 ± 0.034. Under AGTACGGTAA stands 1.13 ± 0.025.

As for CGTATGCAAG, the switch fluorescence ratio turned out to be 0.967 ± 0.041. For the sequence TACGTACAGC, the switch fluorescence ratio amounted to 1.7 ± 0.076. As to TTTTCTTGTC, the switch fluorescence ratio was 1.038 ± 0.0076. With CATAGGGACG, the switch fluorescence ratio is 0.989 ± 0.083. Under ATGCAAACGA stands 1.23 ± 0.065.

As for ACTGGATTTG, the switch fluorescence ratio was determined as 0.9885 ± 0.002. Under CAATATATAC stands 1.13 ± 0.043.

As for TTGCGGGCAG, the switch fluorescence ratio stood at 1.04 ± 0.032. TTTTTGTTAT: the switch fluorescence ratio stood at 0.996 ± 0.02.

On to AAGCTGGCTG, for which the switch fluorescence ratio amounted to 0.945 ± 0.029. The figure for CGGGGAAGGC is 1.13 ± 0.065; for GGTCCTCGGG it is 1.03 ± 0.03; for TAAGGAATGT it is 1.04 ± 0.0038.

ACAATTAAGC: the switch fluorescence ratio was 1.04 ± 0.028. Under CCCGGGTTGG stands 1.12 ± 0.08. Under TACTTTTGAA stands 0.977 ± 0.022. The figure for GAAGTTGCCT is 1.05 ± 0.028; for GGGAGTCTTG it is 0.987 ± 0.015; for TGGGGTGCTC it is 0.998 ± 0.056.

As to AATAAGCTGG, the switch fluorescence ratio worked out at 0.984 ± 0.033. Under ACCGGCGGTT stands 1.01 ± 0.032; under GATTTAGGGG, 0.961 ± 0.042; under CATTTAGGCT, 0.9997 ± 0.0058.

Regarding TGCTTTAAAG, the switch fluorescence ratio amounted to 1 ± 0.037. Under TTACGGGTGC stands 1.19 ± 0.033; under CTGTCGGGCG, 1.02 ± 0.035.

Regarding ACTTACGGCG, the switch fluorescence ratio turned out to be 1.168 ± 0.0051. Consider TTTATAGGCG, for which the switch fluorescence ratio was determined as 0.987 ± 0.023. Under TTACGATGTG stands 1.018 ± 0.0091; under ATATTTGAGT, 0.9878 ± 0.0045; under TAATTAATCT, 0.992 ± 0.049.

For TTTCCCGGCT, the switch fluorescence ratio turned out to be 1.04 ± 0.083. The figure for GGTGCAGACG is 1.03 ± 0.018; for ATAAGCGTCG it is 1.02 ± 0.013. Under TTCGATCCGT stands 1.07 ± 0.029; under AAGATTCATT, 0.99763 ± 0.00055; under AATCAGCGTC, 0.986 ± 0.023.

AGTTTTTAGC: the switch fluorescence ratio is 1.01 ± 0.047.

For TGGGAATGCC, the switch fluorescence ratio came out at 0.994 ± 0.025.

CATTACTTTT: the switch fluorescence ratio was found to be 1.01 ± 0.014. The figure for TGGATAGGCA is 0.986 ± 0.012; for CGGGCTGAAT it is 0.987 ± 0.025; for TTATTTATGT it is 1 ± 0.012. For the sequence GGTTTCGCCG, the switch fluorescence ratio worked out at 0.985 ± 0.052. Under ACGTATGATA stands 1.16 ± 0.056; under TTTTGGGTGG, 0.988 ± 0.034; under AGTGAGGGAA, 0.9787 ± 0.003. The figure for GCCCAAGGA is 1.028 ± 0.0062; for TTTTAAAAAA it is 1 ± 0.026; for GGCTTAAAAA it is 0.982 ± 0.021. The figure for CGATAACCTT is 1.48 ± 0.48; for CGCTTGGGGT it is 0.9626 ± 0.0092. AAGCTGAGAT: the switch fluorescence ratio was found to be 1.01 ± 0.024. Under GATATTGCGA stands 1.02 ± 0.035; under CGAGGGTGCA, 1.04 ± 0.021.

Take AGGGGGTAAC: the switch fluorescence ratio was found to be 1 ± 0.051.

For the sequence GGCAGACGGT, the switch fluorescence ratio is 1.006 ± 0.0016.

CGTTCATTAG: the switch fluorescence ratio is 1.003 ± 0.0076. The figure for TTAAGGGACG is 0.996 ± 0.11; for AGAAAGGGTT it is 0.98 ± 0.022.

TGGGAAAGCG: the switch fluorescence ratio worked out at 1 ± 0.024. Under AACTGGGGGT stands 1.02 ± 0.017. For TCTTGGGGGG, the switch fluorescence ratio is 1 ± 0.019. The figure for CCTGGGGCAG is 1.17 ± 0.093. Under GAAATTTAAG stands 1.02 ± 0.035. Under AATGTCTGTA stands 1.01 ± 0.044; under ATGTAATTCG, 1.002 ± 0.0086. In the case of TTGTTCGGTA, the switch fluorescence ratio is 1.02 ± 0.016. The figure for CACGTGTGTG is 0.961 ± 0.029; for CAGTAATTAT it is 0.997 ± 0.02. The figure for TATTGTGTGT is 0.987 ± 0.022. Under CAACGTGGGG stands 0.99 ± 0.017; under ACATACGGGG, 1.3 ± 0.1. On to CCGTTGTGGA, for which the switch fluorescence ratio was found to be 1.038 ± 0.0027. The figure for TTTTCGTGGG is 0.986 ± 0.027. The figure for TTGCTTCGGG is 0.968 ± 0.028; for AGAGTTGGTG it is 0.997 ± 0.031. On to GTTGTAGGGG, for which the switch fluorescence ratio was 0.987 ± 0.024. Take ATTTTTCAGC: the switch fluorescence ratio was 1.003 ± 0.0042. Consider TTAGATGGTG, for which the switch fluorescence ratio is 1.02 ± 0.033. CTGAGGGAAA: the switch fluorescence ratio worked out at 0.988 ± 0.029. For ATGTAGGTTA, the switch fluorescence ratio is 0.987 ± 0.018. Under TAGGGTCGGT stands 1 ± 0.041.

For the sequence AATCGGGAGG, the switch fluorescence ratio was 0.963 ± 0.062.

As for TATATAAGAA, the switch fluorescence ratio is 1.01 ± 0.033. Under ATCGGTCTTT stands 0.997 ± 0.084; under TTTGGTATGA, 0.9736 ± 0.0021. The figure for CGCATATGTA is 1.08 ± 0.033; for CTTGTGAAA it is 1.009 ± 0.0082.
